This note sets out measurements from patent US20220153793A1 (SINAI HEALTH SYSTEM, published 2022).

The target in one assay is T1, GST-CIP2A (1-560) (human, UniProt Q8TCG1 1-560).
T1 construct: Expressed in Escherichia coli and coupled to glutathione sepharose 4B; not shown: Glutathione S-transferase tag of vector pGEX4T1
Kind of assay: GST pull-down with bacterially produced proteins on glutathione resin, immunoblot anti-MBP. As to the method:
MBP and GST proteins expressed in Escherichia coli were purified on amylose (New England Biolabs) or glutathione sepharose 4B (GE Healthcare) resins according to the batch method described by the manufacturer and stored in 20 mM Tris-HCl pH 8.0, 150 mM NaCl, 1 mM DTT, 5% glycerol. […] Beads were extensively washed prior to analysis by immunoblotting.

The next assay deals with CIP2A (endogenous) (human, UniProt Q8TCG1 1-905). Kind of assay: LacR/LacO assay in U2OS lacO256 cells, endogenous CIP2A at the lacO array.

Procedure for CIP2A (endogenous): 1.8×10⁵ cells were seeded in 6-well plates containing glass coverslips. […] Cells were fixed with 4% PFA 48 h after transfection and stained for immunofluorescence. […] After 0.1 mg/mL nourseothricin selection and cell expansion, 2×10⁵ cells were seeded in 6-well plates. […] 24 h later, cells were seeded in a 96-well plate (˜20,000 cells per well), cultured for 24 h and fixed with 2% PFA and stained for immunofluorescence. Images were acquired on an IN Cell Analyzer 6000 automated microscope (GE Life Sciences) with a 60× objective.

B1: MBP-TOPBP1756-999-3A (other, not shown: large carriers)
chain: LNSDTAEHPGTRLQTHRKTVVTPLDMNRFQSKAFRAVVSQHARQVAASPAVGQPLQKEPSLHLDTPSKFLSKDKLFKPSAAAKDALAALETPGRPSQQKRKPSTPLSEVIVKNLQLALANSSRNAVALSASPQLKEAQSEKEEAPKPLHKVVVCVSKKLSKKQSELNGIAASLGADYRWSFDETVTHFIYQGRPNDTNREYKSVKERGVHIVSEHWLLDCAQECKHLPESLYPHTYNPKMSLDI
As to B1, the binding result with GST-CIP2A (1-560) is given as “no binding”.

B2: mCherry-LacR-TOPBP1 3A (other)
chain: MSRNDKEPFFVKFLKSSDNSKCFFKALESIKEFQSEEYLQIITEEEALKIKENDRSLYICDPFSGVVFDHLKKLGCRIVGPQVVIFCMHHQRCVPRAEHPVYNMVMSDVTISCTSLEKEKREEVHKYVQMMGGRVYRDLNVSVTHLIAGEVGSKKYLVAANLKKPILLPSWIKTLWEKSQEKKITRYTDINMEDFKCPIFLGCIICVTGLCGLDRKEVQQLTVKHGGQYMGQLKMNECTHLIVQEPKGQKYECAKRWNVHCVTTQWFFDSIEKGFCQDESIYKTEPRPEAKTMPNSSTPTSQINTIDSRTLSDVSNISNINASCVSESICNSLNSKLEPTLENLENLDVSAFQAPEDLLDGCRIYLCGFSGRKLDKLRRLINSGGGVRFNQLNEDVTHVIVGDYDDELKQFWNKSAHRPHVVGAKWLLECFSKGYMLSEEPYIHANYQPVEIPVSHKPESKAALLKKKNSSFSKKDFAPSEKHEQADEDLLSQYENGSSTVVEAKTSEARPFNDSTHAEPLNDSTHISLQEENQSSVSHCVPDVSTITEEGLFSQKSFLVLGFSNENESNIANIIKENAGKIMSLLSRTVADYAVVPLLGCEVEATVGEVVTNTWLVTCIDYQTLFDPKSNPLFTPVPVMTGMTPLEDCVISFSQCAGAEKESLTFLANLLGASVQEYFVRKSNAKKGMFASTHLILKERGGSKYEAAKKWNLPAVTIAWLLETARTGKRADESHFLIENSTKEERSLETEITNGINLNSDTAEHPGTRLQTHRKTVVTPLDMNRFQSKAFRAVVSQHARQVAASPAVGQPLQKEPSLHLDTPSKFLSKDKLFKPSAAAKDALAALETPGRPSQQKRKPSTPLSEVIVKNLQLALANSSRNAVALSASPQLKEAQSEKEEAPKPLHKVVVCVSKKLSKKQSELNGIAASLGADYRWSFDETVTHFIYQGRPNDTNREYKSVKERGVHIVSEHWLLDCAQECKHLPESLYPHTYNPKMSLDISAVQDGRLCNSRLLSAVSSTKDDEPDPLILEENDVDNMATNNKESAPSNGSGKNDSKGVLTQTLEMRENFQKQLQEIMSATSIVKPQGQRTSLSRSGCNSASSTPDSTRSARSGRSRVLEALRQSRQTVPDVNTEPSQNEQIIWDDPTAREERARLASNLQWPSCPTQYSELQVDIQNLEDSPFQKPLHDSEIAKQAVCDPGNIRVTEAPKHPISEELETPIKDSHLIPTPQAPSIAFPLANPPVAPHPREKIITIEETHEELKKQYIFQLSSLNPQERIDYCHLIEKLGGLVIEKQCFDPTCTHIVVGHPLRNEKYLASVAAGKWVLHRSYLEACRTAGHFVQEEDYEWGSSSILDVLTGINVQQRRLALAAMRWRKKIQQRQESGIVEGAFSGWKVILHVDQSREAGFKRLLQSGGAKVLPGHSVPLFKEATHLFSDLNKLKPDDSGVNIAEAAAQNVYCLRTEYIADYLMQESPPHVENYCLPEAISFIQNNKELGTGLSQKRKAPTEKNKIKRPRVH
notes: also called Flag-LacR-TOPBP1^3A; not shown: The mCherry-LacR carrier (Flag-LacR in the legend and methods) and its linker
For B2, the binding result with CIP2A (endogenous) is reported as “no binding”.
